Reference: paper PMC2198822 (The Journal of Cell Biology, 2001)

T1: formiminotransferase cyclodeaminase (FTCD), bacterially expressed and purified (rat, UniProt O88618 1-541)
T1 sequence (looked up): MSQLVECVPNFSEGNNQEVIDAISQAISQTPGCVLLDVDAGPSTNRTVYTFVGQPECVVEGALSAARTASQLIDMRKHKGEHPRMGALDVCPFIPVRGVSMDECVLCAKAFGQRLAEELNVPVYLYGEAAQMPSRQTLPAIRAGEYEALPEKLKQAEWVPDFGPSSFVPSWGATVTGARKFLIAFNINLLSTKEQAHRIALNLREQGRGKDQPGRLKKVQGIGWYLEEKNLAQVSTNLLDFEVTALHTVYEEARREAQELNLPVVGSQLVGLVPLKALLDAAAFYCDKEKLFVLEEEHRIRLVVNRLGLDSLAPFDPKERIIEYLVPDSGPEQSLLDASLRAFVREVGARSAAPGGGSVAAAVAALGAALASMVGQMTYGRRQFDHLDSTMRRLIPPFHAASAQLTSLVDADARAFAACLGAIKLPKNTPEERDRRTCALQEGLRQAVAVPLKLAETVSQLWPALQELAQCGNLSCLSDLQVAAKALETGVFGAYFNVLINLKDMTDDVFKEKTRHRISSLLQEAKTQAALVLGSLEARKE

B1: recombinant mouse vimentin, bacterially expressed and purified (natural protein)
chain: not shown
B2: 35S-radiolabeled FTCD generated in vitro by coupled transcription/translation (enzyme, UniProt O88618 1-541, looked up)
chain: T1 sequence (looked up)
modifications: [35S]methionine and [35S]cysteine label

Legend:
[1] = biological target: T1, formiminotransferase cyclodeaminase …; assay: co-sedimentation
[2] = biological target: B1; assay: far-Western, overlay or dot blot
[3] = biological target: T1, formiminotransferase cyclodeaminase …; assay: far-Western, overlay or dot blot

Binder	binding result [1]	fold bound relative to BSA [2] [fold]	fold bound relative to BSA [3] [fold]
B1	binds	–	–
B2	–	~10	~6
